Patent US20110039770A1, “INHIBITORS OF PROTEIN KINASE C ISOFORMS AND USES THEREOF” (PHARMAGAP INC., priority 2005, published 2011)
Where a SMILES comes first, the peptide text is derived from it. [ ]: non-standard residue; d: D form.

Experiments:
Assay in all cases: Competitive binding assay using cell extracts (Western blot)
Details in all cases: Cell extract; PRE 10X or 20X antibody concentration
PKC-βII = system: PKC-βII; set-up: species or system human; key: —: no detectable affinity; Low to very low affinity at 10X or 20X or both PRE concentrations in at least one cell line in the cell extract assay; Low affinity in purified isoform assay.; Moderate affinity at 10X or 20X or both PRE concentrations in at least one cell line in the cell extract assay.; High affinity at 10X or 20X or both PRE concentrations in at least one cell line in the cell extract assay; High affinity in purified isoform assay
Method: (§1) Binding efficiency and specificity of the peptides PRE 2, 3, 4, 5, 6, 7, 8, 9, 10, 11, 12 and 13 (see Table 4) was also tested using cytoplasmic extracts from different cell lines expressing appropriate PKC isoforms as described for Example 1. Briefly, the protein cytoplasmic extracts were separated by electrophoresis and transferred onto nitrocellulose membranes by standard Western blotting procedures. The bands on the Western blots were detected with matching primary antibodies and alkaline phosphatase conjugated secondary antibody. The bands were then scanned and the relative density measurements obtained.
(§2) This procedure to assess the binding characteristics of the PREs is based on competition binding of the PRE with the primary anti-isoform PKC specific antibodies. The lower the measured band density, the greater the binding of the PRE to the PKC isoform. The PREs were added at 10 and 20 times (10×, 20×) the primary antibody concentration, according to classical competition between antigenic peptide and primary antibody. The following cell lines (obtained from the ATCC) were used: H661—NCI human lung carcinoma NSCLC; MDAMB231—human highly invasive breast cancer cell line from pleural effusion; LS180—human colon adenocarcinoma; LnCAP—human prostate adenocarcinoma; CCD16Lu—human lung fibroblasts; Du145—human prostate carcinoma brain metastasis, and T24—human bladder carcinoma.
(§3) In these cases, the 20× band density figures relative to control and 10× values were reliable.

PKC-βI = PKC-βI (Homo sapiens, UniProt P05771); set-up: PKC-βII by PRE 3 and PRE 4 in IMR-32 Neuroblastoma; endogenous in cells; host or cells: IMR-32 human neuroblastoma cells; key: —: no detectable affinity; Low to very low affinity at 10X or 20X or both PRE concentrations in at least one cell line in the cell extract assay; Low affinity in purified isoform assay.; Moderate affinity at 10X or 20X or both PRE concentrations in at least one cell line in the cell extract assay.; High affinity at 10X or 20X or both PRE concentrations in at least one cell line in the cell extract assay; High affinity in purified isoform assay
PKC-ε = target: T1, PKC-ε (Homo sapiens, UniProt Q02156); set-up: cytoplasmic extracts from different cell lines expressing appropriate PKC isoforms; endogenous in cells; host or cells: CCD16Lu, LnCAP, Du145, MDAMB231, LS180; key: —: no detectable affinity; Low to very low affinity at 10X or 20X or both PRE concentrations in at least one cell line in the cell extract assay; Low affinity in purified isoform assay.; Moderate affinity at 10X or 20X or both PRE concentrations in at least one cell line in the cell extract assay.; High affinity at 10X or 20X or both PRE concentrations in at least one cell line in the cell extract assay; High affinity in purified isoform assay
T1 sequence (Q02156 1-737): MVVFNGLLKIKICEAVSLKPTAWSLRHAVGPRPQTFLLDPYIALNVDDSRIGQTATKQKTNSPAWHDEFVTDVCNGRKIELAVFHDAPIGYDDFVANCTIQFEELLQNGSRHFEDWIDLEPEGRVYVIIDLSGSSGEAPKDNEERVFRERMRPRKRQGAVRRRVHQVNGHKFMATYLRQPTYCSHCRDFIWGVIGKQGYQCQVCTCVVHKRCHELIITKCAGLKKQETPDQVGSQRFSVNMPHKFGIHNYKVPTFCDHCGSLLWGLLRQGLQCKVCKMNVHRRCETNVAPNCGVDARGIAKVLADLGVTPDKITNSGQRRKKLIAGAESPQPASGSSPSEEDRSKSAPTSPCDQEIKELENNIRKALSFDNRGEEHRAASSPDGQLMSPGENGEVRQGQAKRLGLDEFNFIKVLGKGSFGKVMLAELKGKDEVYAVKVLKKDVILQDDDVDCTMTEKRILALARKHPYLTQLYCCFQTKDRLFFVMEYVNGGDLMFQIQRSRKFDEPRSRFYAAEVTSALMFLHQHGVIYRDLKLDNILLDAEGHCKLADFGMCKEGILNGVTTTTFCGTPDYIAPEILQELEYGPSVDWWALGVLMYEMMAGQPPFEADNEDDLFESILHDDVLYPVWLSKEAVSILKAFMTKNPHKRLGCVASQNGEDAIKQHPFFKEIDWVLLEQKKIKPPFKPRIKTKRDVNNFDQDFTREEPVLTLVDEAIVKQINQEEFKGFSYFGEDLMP
Method: as §1, §2, §3

Chain of PKC-βI (P05771 whole entry, canonical isoform): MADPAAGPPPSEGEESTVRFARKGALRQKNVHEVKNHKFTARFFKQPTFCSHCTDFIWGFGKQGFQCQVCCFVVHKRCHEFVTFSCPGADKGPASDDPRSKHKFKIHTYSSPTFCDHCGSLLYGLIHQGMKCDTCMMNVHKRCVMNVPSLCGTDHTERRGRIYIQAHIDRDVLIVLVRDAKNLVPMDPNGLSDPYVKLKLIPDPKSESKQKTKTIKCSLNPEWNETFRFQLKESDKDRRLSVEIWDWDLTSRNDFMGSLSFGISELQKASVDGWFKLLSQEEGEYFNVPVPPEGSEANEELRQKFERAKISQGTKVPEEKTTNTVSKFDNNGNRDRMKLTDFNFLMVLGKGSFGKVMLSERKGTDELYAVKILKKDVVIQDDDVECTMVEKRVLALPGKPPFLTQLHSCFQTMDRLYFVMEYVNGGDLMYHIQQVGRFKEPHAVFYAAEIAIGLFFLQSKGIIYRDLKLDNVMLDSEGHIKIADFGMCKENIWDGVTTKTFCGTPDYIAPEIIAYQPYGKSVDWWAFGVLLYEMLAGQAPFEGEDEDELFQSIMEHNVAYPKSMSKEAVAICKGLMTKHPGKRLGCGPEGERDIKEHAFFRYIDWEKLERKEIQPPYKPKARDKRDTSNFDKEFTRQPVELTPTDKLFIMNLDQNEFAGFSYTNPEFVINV

Compound	Affinity for PKC isoform βI (PKC-βI)	Affinity for PKC isoform ε (PKC-ε)	Affinity for PKC isoform βII (PKC-βII)
CC[C@H](C)[C@H](NC(=O)[C@H](CO)NC(=O)[C@@H](NC(=O)CNC(=O)[C@@H](NC(=O)[C@H](CC(C)C)NC(=O)[C@H](CC(N)=O)NC(=O)[C@H](CCC(N)=O)NC(=O)[C@H](C)NC(=O)[C@H](CC(=O)O)NC(=O)CNC(=O)CNC(=O)[C@H](CCCCN)NC(=O)[C@@H](NC(=O)[C@H](CCC(=O)O)NC(=O)[C@H](CCC(N)=O)NC(=O)[C@@H](NC(=O)CNC(=O)[C@H](CCCCN)NC(=O)[C@H](C)NC(C)=O)[C@@H](C)CC)C(C)C)[C@@H](C)CC)[C@@H](C)CC)C(N)=O [PRE 3] (Ac-AKGIQEVKGGDAQNLIGISI-NH2)	L	L	L
CC[C@H](C)[C@H](NC(=O)[C@H](CO)NC(=O)[C@@H](NC(=O)CNC(=O)[C@@H](NC(=O)[C@H](CC(C)C)NC(=O)[C@H](CC(N)=O)NC(=O)[C@H](CCC(N)=O)NC(=O)[C@H](C)NC(=O)[C@H](CC(=O)O)NC(=O)[C@H](CCCCN)NC(C)=O)[C@@H](C)CC)[C@@H](C)CC)C(N)=O [PRE 4, Ac-KDAQNLIGISI-NH2] (Ac-KDAQNLIGISI-NH2)	H	H/L	L
CC[C@H](C)[C@H](NC(=O)[C@H](CO)NC(=O)[C@@H](NC(=O)CNC(=O)[C@@H](NC(=O)[C@H](CC(C)C)NC(=O)[C@H](CC(N)=O)NC(=O)[C@H](CCC(N)=O)NC(=O)[C@H](C)NC(=O)[C@H](CC(=O)O)NC(=O)[C@H](CCCCN)NC(=O)CNC(=O)CNC(=O)[C@H](CCCCN)NC(=O)[C@@H](NC(=O)[C@H](CCC(=O)O)NC(=O)[C@H](CCC(N)=O)NC(=O)[C@@H](NC(=O)CNC(=O)[C@H](CCCCN)NC(=O)[C@H](C)NC(C)=O)[C@@H](C)CC)C(C)C)[C@@H](C)CC)[C@@H](C)CC)C(N)=O [PRE 5] (Ac-AKGIQEVKGGKDAQNLIGISI-NH2)	H	L	H
Ac-ISIGILQNADK-NH2 (not fully specified; printed as Ac-ISIGILQNADK-NH2) [PRE 7]	—	—	
Ac-KDANQLIGISI-NH2 [PRE 6]	H	M	
ILEDKGGDAQNLIGISI [PRE 8]		L	H
RRKKGGKDFVVKR [PRE 1]	H		

Further lines, with some results ahead:

Affinity for PKC isoform βI (PKC-βI)	Affinity for PKC isoform ε (PKC-ε)	Compound	Affinity for PKC isoform βII (PKC-βII)
M	M/L	Ac-ISIGILNQADK-NH2 [PRE 10]	—
—	—	Ac-KDAQNLI-NH2 [PRE 12]	L
—	—	Ac-RDAQNLI-NH2 [PRE 13]	
H	—	Ac-RDAQNLIGISI-NH2 [PRE 11]	
M	M/L	Ac-isigilqnadk-NH2 (Ac-[dI][dS][dI]G[dI][dL][dQ][dN][dA][dD][dK]-NH2; SMILES CC[C@@H](C)[C@@H](NC(C)=O)C(=O)N[C@H](CO)C(=O)N[C@@H](C(=O)NCC(=O)N[C@@H](C(=O)N[C@H](CC(C)C)C(=O)N[C@H](CCC(N)=O)C(=O)N[C@H](CC(N)=O)C(=O)N[C@H](C)C(=O)N[C@H](CC(=O)O)C(=O)N[C@H](CCCCN)C(N)=O)[C@H](C)CC)[C@H](C)CC) [PRE 9]	—
